In patent US20060263802A1 (CRUCELL HOLLAND B V, published 2006):

Tests used:
Test in all cases: PEPSCAN ELISA, looped 15-mer, 10 ug/ml
[1] = molecular target: looped peptide … (rabies virus strain ERA)
[2] = molecular target: looped peptide … (rabies virus strain ERA); remark: listed apart in the source
[3] = molecular target: looped peptide … (rabies virus strain ERA); remark: listed apart in the source
[4] = molecular target: looped peptide … (rabies virus strain ERA); remark: listed apart in the source
[5] = molecular target: looped peptide … (rabies virus strain ERA); remark: listed apart in the source
[6] = molecular target: looped peptide … (rabies virus strain ERA); remark: listed apart in the source
[7] = molecular target: looped peptide … (rabies virus strain ERA); remark: listed apart in the source
[8] = molecular target: looped peptide … (rabies virus strain ERA); remark: listed apart in the source
[9] = molecular target: looped peptide … (rabies virus strain ERA); remark: listed apart in the source
[10] = molecular target: looped peptide … (rabies virus strain ERA); remark: listed apart in the source
[11] = molecular target: looped peptide … (rabies virus strain ERA); remark: listed apart in the source
[12] = molecular target: looped peptide … (rabies virus strain ERA); remark: listed apart in the source
[13] = molecular target: looped peptide … (rabies virus strain ERA); remark: listed apart in the source
[14] = molecular target: looped peptide … (rabies virus strain ERA); remark: listed apart in the source
[15] = molecular target: looped peptide … (rabies virus strain ERA); remark: listed apart in the source
[16] = molecular target: looped peptide … (rabies virus strain ERA); remark: listed apart in the source
[17] = molecular target: looped peptide … (rabies virus strain ERA); remark: listed apart in the source
[18] = molecular target: looped peptide … (rabies virus strain ERA); remark: listed apart in the source
[19] = molecular target: looped peptide … (rabies virus strain ERA); remark: listed apart in the source
[20] = molecular target: looped peptide … (rabies virus strain ERA); remark: listed apart in the source
[21] = molecular target: looped peptide … (rabies virus strain ERA); remark: listed apart in the source
[22] = molecular target: looped peptide … (rabies virus strain ERA); remark: listed apart in the source
[23] = molecular target: looped peptide … (rabies virus strain ERA); remark: listed apart in the source
[24] = molecular target: looped peptide … (rabies virus strain ERA); remark: listed apart in the source
[25] = molecular target: looped peptide … (rabies virus strain ERA); remark: listed apart in the source
[26] = molecular target: looped peptide … (rabies virus strain ERA); remark: listed apart in the source
[27] = molecular target: looped peptide … (rabies virus strain ERA); remark: listed apart in the source
[28] = molecular target: looped peptide … (rabies virus strain ERA); remark: listed apart in the source
[29] = molecular target: looped peptide … (rabies virus strain ERA); remark: listed apart in the source
[30] = molecular target: looped peptide … (rabies virus strain ERA); remark: listed apart in the source
[31] = molecular target: looped peptide … (rabies virus strain ERA); remark: listed apart in the source
[32] = molecular target: looped peptide … (rabies virus strain ERA); remark: listed apart in the source
[33] = molecular target: looped peptide … (rabies virus strain ERA); remark: listed apart in the source
[34] = molecular target: looped peptide … (rabies virus strain ERA); remark: listed apart in the source
[35] = molecular target: looped peptide … (rabies virus strain ERA); remark: listed apart in the source
[36] = molecular target: looped peptide … (rabies virus strain ERA); remark: listed apart in the source
[37] = molecular target: looped peptide … (rabies virus strain ERA); remark: listed apart in the source
[38] = molecular target: looped peptide … (rabies virus strain ERA); remark: listed apart in the source
[39] = molecular target: looped peptide … (rabies virus strain ERA); remark: listed apart in the source
[40] = molecular target: looped peptide … (rabies virus strain ERA); remark: listed apart in the source
[41] = molecular target: looped peptide … (rabies virus strain ERA); remark: listed apart in the source
[42] = molecular target: looped peptide … (rabies virus strain ERA); remark: listed apart in the source
[43] = molecular target: looped peptide … (rabies virus strain ERA); remark: listed apart in the source
[44] = molecular target: looped peptide … (rabies virus strain ERA); remark: listed apart in the source
[45] = molecular target: looped peptide … (rabies virus strain ERA); remark: listed apart in the source
[46] = molecular target: looped peptide … (rabies virus strain ERA); remark: listed apart in the source
[47] = molecular target: looped peptide … (rabies virus strain ERA); remark: listed apart in the source
[48] = molecular target: looped peptide … (rabies virus strain ERA); remark: listed apart in the source
[49] = molecular target: looped peptide … (rabies virus strain ERA); remark: listed apart in the source
[50] = molecular target: looped peptide … (rabies virus strain ERA); remark: listed apart in the source
[51] = molecular target: looped peptide … (rabies virus strain ERA); remark: listed apart in the source
[52] = molecular target: looped peptide … (rabies virus strain ERA); remark: listed apart in the source
[53] = molecular target: looped peptide … (rabies virus strain ERA); remark: listed apart in the source
[54] = molecular target: looped peptide … (rabies virus strain ERA); remark: listed apart in the source
[55] = molecular target: looped peptide … (rabies virus strain ERA); remark: listed apart in the source
[56] = molecular target: looped peptide … (rabies virus strain ERA); remark: listed apart in the source
[57] = molecular target: looped peptide … (rabies virus strain ERA); remark: listed apart in the source
[58] = molecular target: looped peptide … (rabies virus strain ERA); remark: listed apart in the source
[59] = molecular target: looped peptide … (rabies virus strain ERA); remark: listed apart in the source
[60] = molecular target: looped peptide … (rabies virus strain ERA); remark: listed apart in the source
[61] = molecular target: looped peptide … (rabies virus strain ERA); remark: listed apart in the source
[62] = molecular target: looped peptide … (rabies virus strain ERA); remark: listed apart in the source
[63] = molecular target: looped peptide … (rabies virus strain ERA); remark: listed apart in the source
[64] = molecular target: looped peptide … (rabies virus strain ERA); remark: listed apart in the source
[65] = molecular target: looped peptide … (rabies virus strain ERA); remark: listed apart in the source
[66] = molecular target: looped peptide … (rabies virus strain ERA); remark: listed apart in the source
[67] = molecular target: looped peptide … (rabies virus strain ERA); remark: listed apart in the source

B1: human monoclonal antibody CRJB (antibody, V domains shown)
VH: QITLKETGPTLVKPTQTLTLTCTFSGFSLSTSGVGVGWIRQPPGKALEWVTLIYWDDDKRYSPSLENRVTIRKDTSKNQVALTMTNMDPLDTGTYYCAHRQHISSFPWFDSWGQGTLVTVSS
VL: SYVLTQPPSVSVAPGKTARINCGGNNIEYRSVHWYQQKSGQAPVAVIYDNSDRPSGIPERFSGSKSGNTATLTISRVEAGDEADYYCQVWDISSDVVFGGGTKLTVLG
With B1 the OD value [1] was 89, the OD value [2] was 101 and the OD value [3] was 73. For the same binder, the OD value [4] was 86, the OD value [5] was 57 and the OD value [6] was 111. It also gave an OD value [7] of 72, an OD value [8] of 75 and an OD value [9] of 82. It also gave an OD value [10] of 54, an OD value [11] of 90 and an OD value [12] of 75. For the same binder, the OD value [13] was 64, the OD value [14] was 88 and the OD value [15] was 34. The OD value [16] was 78, the OD value [17] was 93 and the OD value [18] was 83. It also gave an OD value [19] of 78, an OD value [20] of 82 and an OD value [21] of 104. The OD value [22] was 48, the OD value [23] was 94 and the OD value [24] was 77. It also gave an OD value [25] of 58, an OD value [26] of 8 and an OD value [27] of 58. The OD value [28] was 60, the OD value [29] was 79 and the OD value [30] was 89. It also gave an OD value [31] of 106, an OD value [32] of 99 and an OD value [33] of 25. For the same binder, the OD value [34] was 108, the OD value [35] was 90 and the OD value [36] was 89. It also gave an OD value [37] of 5, an OD value [38] of 106 and an OD value [39] of 86. For the same binder, the OD value [40] was 72, the OD value [41] was 84 and the OD value [42] was 66. For the same binder, the OD value [43] was 87, the OD value [44] was 85 and the OD value [45] was 79. The OD value [46] was 93, the OD value [47] was 62 and the OD value [48] was 72. For the same binder, the OD value [49] was 58, the OD value [50] was 79 and the OD value [51] was 61. It also gave an OD value [52] of 44, an OD value [53] of 89 and an OD value [54] of 27. For the same binder, the OD value [55] was 83, the OD value [56] was 103 and the OD value [57] was 90. The OD value [58] was 70, the OD value [59] was 74 and the OD value [60] was 76. The OD value [61] was 33, the OD value [62] was 71 and the OD value [63] was 66. The OD value [64] was 57, the OD value [65] was 96 and the OD value [66] was 72. It also gave an OD value [67] of 80.
